Experimental data published in the DeepSol protein solubility set.

Assay: soluble on expression in E. coli; label from the status in PepcDB or PDB records

| Sequence | soluble on expression in E. coli |
| --- | --- |
| DTTQNLMIEGDNLEVLKLLQKSYAGKIKLIYIDPPYNTGKDFVYPDDFKDNIRNYLELTGQVEGGRKISSNTEASGRFHTDWLNMMYPRLKIARQLLSPTGVIAVHIDEHELEALVIVLRDLFGEENELGVTIWDKRNPKGDSRGIAYQHESLVLFARDAEELFARSPVRRAKRNAERMLNAASRFVTECGSIAEARAAYRSWVKSQSTLSGGESMYDKLSETGRVYRLVSMAWPNKKRAPADYFVPLKHPITGKDCPIPERGWRNPPATMKKLLEDGLIEFGPDEIMQPQRIYFLDENMYENVPSIVPFGGSDDELLKELSVPFEQPKPVDFSVQVISWCSSKDEIVMDFFAGSGTTGHAVMAQNAADGGNRRYILVQLPEPLDPENKDQKVAAEFCDKLGKPRTIAELTKERLRRAAKKIKEENPLFAGDLGFRVFKLDSSNIRA | not soluble |
| DVFVYGSFQEPSVVNLILECSPVMVPAQLHGYHVYRLKGRLHACISPSENGLINGKILTGLTDSQLENLDMIEGSEYVRKTVEVVLTDTSEKKQVETYVWANKDDPNLYGEWDFEEWRRLHMDKFIEASTKFIEWKKNPDG | not soluble |
| DVQLQQSGPGLVAPSQSLSITCTVSGFSLTDYGVNWVRQSPGKGLEWLGVIWGDGITDYNSALKSRLSVTKDNSKSQVFLKMNSLQSGDSARYYCVTGLFDYWGQGTTLTVSSASGADHHHHHH | soluble |
| EAVIATDEMNVRSGPGLSYGITAEVKKGERYPILKEDGDWVQIQLGSGEKGWVVSWLITKEDQASTSSSGSSDTVTSTDPDLRMRSGPGTSYEVIGKFPQGSQASVIDKDSGWIKISYHSATGWVSSEYVTSGGSSSASDESDQTEDSGASTTGTVGVSSLNVRASASHDAAIITKLDRGTKLTVLNEKNGWAHIEVNGLKGWVASHYLLTSSVPADDSANAGSSSSAKKAYIMYGGTNLRSDASTSASIVERAAKGDSYTITGSKGSWYEIKLDNGQTAYVANWVVQTSKSAEEAGEPPVSDSPSGNGSLNNKTIIVDPGHGGKDSGTIGYSGKFEKNLTIKTAKLLASKLRSAGADVYVTRQDDTFVSLQSRVSTSHYRNADAFISIHYDSYADTSTRGSTAYYYSPAKDQELASDVHSEVVKRSSIPDRGVLFGDYYVLRENRQPAMLYELGYVSHPQEEAIVHSNSYQEKVTDGIESGLEKYF | not soluble |
| EDAALREEAKGLFEVIPMQAPQLADNNTVTRDKIDLGAMLFFDPRMSKSGVFSCQSCHNVGLGGVDGLETSIGHGWQKGPRNAPTALNAVFNVAQFWDGRAPDLAAQAKGPVQAGVEMNNTPENLVATVQSMPGYVEAFAKAFPGQKDPISFDNFALAVEAFEATLITPNSKFDQWLMGADGAMSADEKAGLKLFIDTGCAACHNGINIGGNGYYPFGVVEKPGAEVLPAGDKGRFAVTATADDEYVFRAGPLRNIALTAPYFHSGKVWDLREAVSVMANSQLGATLDDTQVDQITAFLGTLTGEQPEVVHPILPVRSAQTPRPEHMN | soluble |
| EDKIMSYNAFFWMWVHDMLIDSIKWRDEHGRCINKDKGKTCIKGCNKKCICFQKWVEQKKTEWGKIKDHFRKQKDIPKDWTHDDFLQTLLMKDLLLEIIQDTYGDANEIKRIEALLEQAGVGGIDFAALAGLYTKGFVAEKDTTIDKLLQHEQKEADKCLKTHTDDTCPPQEDRSVARS | soluble |
| EEALIKIKQQEIVKNLPANAALVQLKYAGKTTDEPILNNLYKKYQVTANILYGNIEILEKTPVGEMIVILEGAATNIDQALNDLTHSDLTVTVLKRGV | not soluble |
| EGDPENGEKLQITIRRGKDGFGFTICCDSPVRVQAVDSGGPAERAGLQQLDTVLQLNERPVEHWKCVELAHEIRSCPSEIILLVWRV | soluble |
| EGQEKFKDLTYIAASVCNTEHAFITLLNKDNLVFLSSFKPPLAEITRDLSFCEITIQSDTVHEVQDARVHERFSNNPYVIGEPYLRYYCGAPLIDENGYKLGALCVLDTNPRTLTENQKKSLVLLAKQV | not soluble |
| EGRATHLQGLVVDITERKEAQKMLEIQRELGAKLNTTWNLHAILNMVLDACLQINGIDAGGVYIRDELLDQINLVQSRGISPEFKEKVSRFKADSNEAKQVWAEKPIYSMDFYSDKMAEAARKEGIKAVAVIPLKYSNEIIGSLNFASH | not soluble |
| EGVAVMLFYSVGELFQDKAIDKAKRNISALLDVRPEKAVVVRSNEIVTVDPRSVLINEIIEIKAGERVPLDGVMLDEVAAFNTAALTGESVPRDISRGEEVLAGMIVTDKVIRMKVTKPFDKSALARILELVE | not soluble |
| EKMTRDEIAYMLTNSEETLDADEIEMLQGVFSLDELMAREVMVPRTDAFMVDIQDDSQAIIQSILKQNYSRIPVYDGDKDNVIGIIHTKSLLKAGFVDGFDNIVWKRILQDPLFVPETIFVDDLLKELRNTQRQMAILLDEYGGMAGLVTLEDLLEEIVGEID | not soluble |
| ELISRYPERYCRASSGRCTFAFHPAPEKSFNRGFTNLLLSGKRDTNTLITPESNKSKGAYIGCVTAVNRDKVSIRLRPDNTGAKPSLANGDGLYLLHPDGNMSGTRINVVLPDGSIQVDNPAGIVSGTNVFRNYDIRFEKALSQDNSAVRLIPVSLTLTDVPDGFSLSIEADCYPSAKATITAAHEPATRFDEEQIRKNLTKLGGTPLEAVSVDIRLSHDYFIPLSLIGRLRRDAVQSFIEKASSMPEREEKPVVQRRISPAASSLQEGEQSLSFLANVANKEAETFYRQMGYTSIAPAFEHSHPQGVPLMFSKHCLRYHLGYCPTLQHKESPYREPYYLIHGETRLRLRFDCQHCQMLVYHDSEGIKQT | not soluble |
| ENSLIGLNDHTLVTEDDGRRWVTHEPALVYFHNKYWFNIIAMIRNDGVSYYCNLASPYVMDKEALKYIDYDLDIKVLTNGTKHLLDADEYIAHGQLWNYP | not soluble |
| ERVKWRKQIEASGARLKSMIDQTPAPTLVLMGDNLVIEQVNTSMLKLLGHEENIVGIPLLTLMPELKGQYIWEQVEKVYREGIPFDQSEVRVSHKRTGMMEDYYYNIAYRPLKEDGRITGMIQVAIDVT | not soluble |
| EVLPNFAENARPIEGKKPYTVLQLAGRAVYIKDSCNACHSQLIRPFKSETDRYGMYSVSGEFAYDRPFLWGSKRTGPDLARVGNYRTADWHENHMWDPTSVVPDSIMPSYKHMFKNNADIETAYAEALTVKKVFNVPYDAENGTKLGSWEDAQAEVKAEAQAIVDQMKNQEVKDAFAKGEIKEIVALIAYLNSLK | not soluble |
| EVQLVESGGGLVKPGGSLKLSCAASGFAFSSYDMSWVRQTPEKRLEWVAYISSGGGSTYYPDTVKGRFTISRDNAKNTLYLQMSSLKSEDTAMYYCARPDYRSYAMDYWGQGTSVTVSSAKTTAPSVYPLAPVCGDTTGSSVTLGCLVKGYFPEPVTLTWNSGSLSSGVHTFPAVLQSDLYTLSSSVTVTSSTWPSQSITCNVAHPASSTKVDKKIEPRGP | soluble |
| EVSTTQNDTLKVMTHNVYMLSTNLYPNWGQTERADLIGAADYIKNQDVVILNEVFDNSASDRLLGNLKKEYPNQTAVLGRSSGSEWDKTLGNYSSSTPEDGGVAIVSKWPIAEKIQYVFAKGCGPDNLSNKGFVYTKIKKNDRFVHVIGTHLQAEDSMCGKTSPASVRTNQLKEIQDFIKNKNIPNNEYVLIGGDMNVNKINAENNNDSEYASMFKTLNASVPSYTGHTATWDATTNSIAKYNFPDSPAEYLDYIIASKDHANPSYIENKVLQPKSPQWTVTSWFQKYTYNDYSDHYPVEATISMK | soluble |
| EVVVVGYGTQKKVNLTGAVSAVSAEDLASKPVMSTAQALAGLAPGLSVLQTSGRPGQGATVKIRGTGTFSKAGTDPLVLIDGLSGNIDDVDPNDIQSISFLKDAASASIYGNRAANGVILIETKKGA | not soluble |
| EYVYIMTPYLILDSELEHAIQFAAERGVDVRIIMPGIPDKPIPYALAKTYYQALTKSGVKIYEYTLGFVHSKIFLSDNTKAVVGTINLDYRSLYHHFECAVYLYKVDAIQDIYRDYMDTLNKSRLVSLKDINNI | not soluble |
| FAKQKKESVISAISTVNPQELKVPSSNLTTALAGRMSGLIAFQTTGEPGKDNAQFFVRGATTFGYKKDPLILIDNIELSTDDLARLNVDDIAQFSIMKDATATALYGARGANGVILVTTKQGVAG | not soluble |
| FEHVLVFAPTGSGKTRSIGIPNLFNYPYSVVCNDVKLTLFRTTSGYRERVLGHRCFCWAPADENRITHCYNPLSLISEDKIQRLTDIQRIAHILMPDNKKSDPIWQQASRKLFKVAVLYLLDTPERPTTLGEINRLVKQAGFDDWLASVLEETNHLDPEFYRNGYSYLNNHEKTRSSILETFSGYFELFDDPTIDAATARSDFDLRQLRREKITIYIGFTDDDMERLSPLLTLFWQQLISVMIKNIPDPVDEPYPLLCLIDEFSSLGRIERLRRSLKLLREYRVRCVLIMQYIAQTYEQYTHDEAKAFTNIKTKIAFATEDIFDAEYVSKLLGTRTVKVSAGSTSTQTQGYSESKSYNYQAIPLLRPDEVMRLPEDQTLIMRTGHAPVKAEQMVWY | not soluble |
| FERGHEFSFAQAVRLLRLLAAAQGREGACPCGVRVRPELSLSFPVADVARIERQSDGYRITARFLGLYGPSSPLPTFYTEELIDEEREDGSASRDFLDVLSHRIFDLWVAGDAKYRLFNRVVEDGSGDDLERLFCLAGLDLAQGQTVLPESGRWLRYVGLLGQVPRSALGLRTMVADALGVPVEVIPCQHRQVSIPPGQRLAVGIAASSLGIDTVVGTNLDDRLGMFRLCLGPLSREQFADLLPGAPGRSTLDLIVELYLDAPLAWDVELTLAPGETPEARLGACRGARVGWDTWLGV | not soluble |
| FFSGLFQRKSDAPVTTPAELADAIGLSYDTYTGKQISSQRAMRLTAVFSCVRVLAESVGMLPCNLYHLNGSLKQRATGERLHKLISTHPNGYMTPQEFWELVVTCLCLRGNFYAYKVKAFGEVAELLPVDPGCVVYALGRCQRWPEGDRRECYSAR | soluble |
| FGLKNNPSSSRPEGLLFYEYQQAKPKQQTAHFALDQMIYEINQSFGYEIIQRAKKLAAS | not soluble |
| FINNPNRHFANNYHFAKELALELKKQDVLELATAPSLQKRLRFYGIKNSNKFYLKALKQADKHDMDKKIVKVKLGKYEKVYQILNYD | not soluble |
| FKRVSKAAVTASVTVIKAEDLVNTPVANPMELLQGRVPGLNIQMNNGTPGGLPSFSIRGVSDISVQSSGDGEFMMGLTPPLFVVDGIPQEDVTGYDAAGLLSGATVSPLAMIPLEDIANIQVLKDAAATSLYGSKGAYGVILIETKRGETA | not soluble |
| FPSQDQYLAGLLETPEQKIRAYVLFAHCFTCGKDVAAASRISRFLVQHGFAVFRFDFTGLGNSDGDFANTNFSSNTEDLVSAAYFLEQNYEAPQLLIGHSLGGAAVLAMASQLPKVKGVVTIGAPYEASHVIHNFDAHLEKIDQSGSAKVSLGSREFTIKKQFLDDLRNQTTEHIQHLNKALLVLHSPIDLTVDISDAEKIYKAAKHPKSFVSLDTADHLLSKSIDSEYVAQTISGWASRYIP | not soluble |
